Measurements published in US20100129369A1 (Eli Lilly, published 2010).

Legend:
Human c-Met-Flis-Fc ECD [1] = target: T1, Human c-Met-Flis-Fc ECD (human); test: ELISA, coated ECD-Fc, antibody 16666.667 ng/mL
T1 construct: also called human c-Met extracellular domain (ECD)-Fc-Flis fusion; Human cMet-ECD-Fc-Flis
Method: (§1) Wells of 96-well EIA/RIA high binding plates (Costar, #2592) are coated with 100 μL of 1 μg/mL human c-Met extracellular domain (ECD)-Fc-Flis fusion (SEQ ID NO:72), RON-ECD-Fc (R&D Systems, #1947-MS), or PlexinA2-ECD-Fc (Abnova, Taipei, Taiwan #H00005362-P01) in coating buffer (BioFX Labs, # COAT-1000-01) overnight at 4° C. […] After the plates are washed, 100 μL/well of substrate solution (BioFx, #TMBW-1000-01) are added and the plates are incubated for 10 min. at room temperature. 100 μL/well of stop solution (BioFx, # LSTP-1000-01) are added to stop the reaction. The colorimetric signals are developed and read at 450 nm using a SpectraMax 190 plate reader (Molecular Devices, Sunnyvale, Calif.). c-Met antibody binding to c-Met, RON and PlexinA2 ECDs is proportional to color signal production.

RON-ECD-Fc [2] = target: T2, RON-ECD-Fc (human, UniProt Q04912 25-957); test: ELISA, coated ECD-Fc, antibody 0.000 ng/mL
T2 construct: extracellular domain; Bought reagent; not shown: Fc part of the bought fusion
T2 sequence (looked up): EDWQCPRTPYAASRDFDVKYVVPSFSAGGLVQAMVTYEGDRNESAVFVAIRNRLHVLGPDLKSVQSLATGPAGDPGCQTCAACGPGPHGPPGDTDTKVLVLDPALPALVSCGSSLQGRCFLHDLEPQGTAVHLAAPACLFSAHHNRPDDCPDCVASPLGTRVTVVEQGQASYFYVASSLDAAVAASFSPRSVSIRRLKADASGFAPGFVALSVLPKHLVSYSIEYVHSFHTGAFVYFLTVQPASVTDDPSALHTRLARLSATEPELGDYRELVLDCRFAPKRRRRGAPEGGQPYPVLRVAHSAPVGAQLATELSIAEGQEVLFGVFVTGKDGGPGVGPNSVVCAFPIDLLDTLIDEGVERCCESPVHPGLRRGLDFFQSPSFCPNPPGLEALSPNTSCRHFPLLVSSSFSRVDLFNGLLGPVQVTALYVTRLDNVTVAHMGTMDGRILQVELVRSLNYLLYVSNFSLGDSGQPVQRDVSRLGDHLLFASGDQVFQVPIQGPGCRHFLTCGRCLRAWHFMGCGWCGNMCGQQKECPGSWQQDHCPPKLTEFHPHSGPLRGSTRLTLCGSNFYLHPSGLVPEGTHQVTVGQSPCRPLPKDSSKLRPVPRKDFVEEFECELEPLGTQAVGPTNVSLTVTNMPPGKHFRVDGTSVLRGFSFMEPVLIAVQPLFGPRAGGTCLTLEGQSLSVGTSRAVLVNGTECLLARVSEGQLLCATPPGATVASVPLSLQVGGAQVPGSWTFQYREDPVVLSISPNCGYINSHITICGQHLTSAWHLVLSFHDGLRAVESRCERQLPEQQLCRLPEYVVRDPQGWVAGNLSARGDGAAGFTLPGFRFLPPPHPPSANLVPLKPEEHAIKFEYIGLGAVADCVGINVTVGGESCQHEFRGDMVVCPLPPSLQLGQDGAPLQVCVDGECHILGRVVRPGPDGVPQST
Method: as §1

PlexinA2-ECD-Fc = target: T3, PlexinA2-ECD-Fc (human, UniProt O75051 35-1237); test: ELISA, coated ECD-Fc, antibody 0.000 ng/mL
T3 construct: extracellular domain; Bought reagent
T3 sequence (looked up): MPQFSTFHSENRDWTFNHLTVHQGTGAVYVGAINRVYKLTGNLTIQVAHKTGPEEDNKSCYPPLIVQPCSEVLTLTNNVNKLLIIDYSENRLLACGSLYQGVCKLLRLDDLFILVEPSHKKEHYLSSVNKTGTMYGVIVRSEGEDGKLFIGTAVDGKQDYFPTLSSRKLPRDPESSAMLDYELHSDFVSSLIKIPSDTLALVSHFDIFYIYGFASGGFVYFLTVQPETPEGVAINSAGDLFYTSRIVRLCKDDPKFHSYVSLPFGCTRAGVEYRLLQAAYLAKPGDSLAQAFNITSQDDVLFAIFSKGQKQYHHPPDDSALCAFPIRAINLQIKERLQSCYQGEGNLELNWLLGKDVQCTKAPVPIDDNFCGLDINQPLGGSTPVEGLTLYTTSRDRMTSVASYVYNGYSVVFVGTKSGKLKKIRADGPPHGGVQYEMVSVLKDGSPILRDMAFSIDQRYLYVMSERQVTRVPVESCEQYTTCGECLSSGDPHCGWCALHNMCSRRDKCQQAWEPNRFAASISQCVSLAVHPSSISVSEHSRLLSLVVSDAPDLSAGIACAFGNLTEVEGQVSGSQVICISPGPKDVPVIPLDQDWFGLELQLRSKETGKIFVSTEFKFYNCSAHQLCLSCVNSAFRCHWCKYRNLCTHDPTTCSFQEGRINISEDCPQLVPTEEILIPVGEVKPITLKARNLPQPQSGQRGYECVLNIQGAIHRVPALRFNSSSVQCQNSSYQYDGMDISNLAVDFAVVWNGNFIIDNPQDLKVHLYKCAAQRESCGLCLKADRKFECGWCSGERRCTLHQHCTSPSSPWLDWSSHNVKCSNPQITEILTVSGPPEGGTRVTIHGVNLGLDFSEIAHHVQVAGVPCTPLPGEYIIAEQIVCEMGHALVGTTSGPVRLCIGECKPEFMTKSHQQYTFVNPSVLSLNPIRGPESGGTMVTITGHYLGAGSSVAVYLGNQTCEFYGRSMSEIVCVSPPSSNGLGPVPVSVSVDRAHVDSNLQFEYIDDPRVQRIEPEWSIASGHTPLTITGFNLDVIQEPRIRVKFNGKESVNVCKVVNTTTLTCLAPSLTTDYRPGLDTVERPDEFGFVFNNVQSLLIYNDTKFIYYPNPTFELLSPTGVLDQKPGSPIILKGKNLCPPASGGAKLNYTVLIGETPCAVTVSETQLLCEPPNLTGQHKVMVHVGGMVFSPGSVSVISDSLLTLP
Method: as §1

Human c-Met-Flis-Fc ECD [3] = target: T1, Human c-Met-Flis-Fc ECD; test: ELISA, coated ECD-Fc, antibody 0.000 ng/mL
Method: as §1

RON-ECD-Fc [4] = target: T2, RON-ECD-Fc; test: ELISA, coated ECD-Fc, antibody 2.143 ng/mL
Human c-Met-Flis-Fc ECD [5] = target: T1, Human c-Met-Flis-Fc ECD; test: ELISA, coated ECD-Fc, antibody 2.143 ng/mL
mouse c-Met ECD = target: T4, mouse c-Met ECD (mouse, UniProt P16056 25-931); test: ELISA, coated ECD (data not shown)
T4 construct: extracellular domain
T4 sequence (P16056 25-931): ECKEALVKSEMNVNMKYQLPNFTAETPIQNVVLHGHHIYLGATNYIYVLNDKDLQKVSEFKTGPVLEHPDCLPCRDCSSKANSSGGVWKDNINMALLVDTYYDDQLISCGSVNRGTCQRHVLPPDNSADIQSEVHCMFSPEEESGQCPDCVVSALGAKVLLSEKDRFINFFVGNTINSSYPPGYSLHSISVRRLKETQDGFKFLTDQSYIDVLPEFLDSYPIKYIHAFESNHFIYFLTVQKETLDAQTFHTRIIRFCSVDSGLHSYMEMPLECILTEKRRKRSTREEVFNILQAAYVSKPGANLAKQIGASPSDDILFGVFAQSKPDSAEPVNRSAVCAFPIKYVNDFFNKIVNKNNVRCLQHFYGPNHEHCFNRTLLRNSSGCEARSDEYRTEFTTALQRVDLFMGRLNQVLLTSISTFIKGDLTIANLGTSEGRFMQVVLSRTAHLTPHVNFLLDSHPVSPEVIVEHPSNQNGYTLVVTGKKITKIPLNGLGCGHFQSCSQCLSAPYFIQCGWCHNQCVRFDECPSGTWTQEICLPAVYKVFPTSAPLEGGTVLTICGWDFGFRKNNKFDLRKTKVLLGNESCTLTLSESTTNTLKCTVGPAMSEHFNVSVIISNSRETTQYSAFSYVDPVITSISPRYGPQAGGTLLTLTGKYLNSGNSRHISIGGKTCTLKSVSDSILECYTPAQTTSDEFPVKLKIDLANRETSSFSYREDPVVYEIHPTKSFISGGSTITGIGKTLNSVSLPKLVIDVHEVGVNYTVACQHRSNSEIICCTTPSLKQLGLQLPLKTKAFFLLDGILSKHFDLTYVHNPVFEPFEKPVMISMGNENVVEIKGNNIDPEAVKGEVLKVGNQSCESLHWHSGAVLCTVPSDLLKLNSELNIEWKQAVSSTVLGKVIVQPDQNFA

T1 sequence (chain, as listed by the source limits assumed): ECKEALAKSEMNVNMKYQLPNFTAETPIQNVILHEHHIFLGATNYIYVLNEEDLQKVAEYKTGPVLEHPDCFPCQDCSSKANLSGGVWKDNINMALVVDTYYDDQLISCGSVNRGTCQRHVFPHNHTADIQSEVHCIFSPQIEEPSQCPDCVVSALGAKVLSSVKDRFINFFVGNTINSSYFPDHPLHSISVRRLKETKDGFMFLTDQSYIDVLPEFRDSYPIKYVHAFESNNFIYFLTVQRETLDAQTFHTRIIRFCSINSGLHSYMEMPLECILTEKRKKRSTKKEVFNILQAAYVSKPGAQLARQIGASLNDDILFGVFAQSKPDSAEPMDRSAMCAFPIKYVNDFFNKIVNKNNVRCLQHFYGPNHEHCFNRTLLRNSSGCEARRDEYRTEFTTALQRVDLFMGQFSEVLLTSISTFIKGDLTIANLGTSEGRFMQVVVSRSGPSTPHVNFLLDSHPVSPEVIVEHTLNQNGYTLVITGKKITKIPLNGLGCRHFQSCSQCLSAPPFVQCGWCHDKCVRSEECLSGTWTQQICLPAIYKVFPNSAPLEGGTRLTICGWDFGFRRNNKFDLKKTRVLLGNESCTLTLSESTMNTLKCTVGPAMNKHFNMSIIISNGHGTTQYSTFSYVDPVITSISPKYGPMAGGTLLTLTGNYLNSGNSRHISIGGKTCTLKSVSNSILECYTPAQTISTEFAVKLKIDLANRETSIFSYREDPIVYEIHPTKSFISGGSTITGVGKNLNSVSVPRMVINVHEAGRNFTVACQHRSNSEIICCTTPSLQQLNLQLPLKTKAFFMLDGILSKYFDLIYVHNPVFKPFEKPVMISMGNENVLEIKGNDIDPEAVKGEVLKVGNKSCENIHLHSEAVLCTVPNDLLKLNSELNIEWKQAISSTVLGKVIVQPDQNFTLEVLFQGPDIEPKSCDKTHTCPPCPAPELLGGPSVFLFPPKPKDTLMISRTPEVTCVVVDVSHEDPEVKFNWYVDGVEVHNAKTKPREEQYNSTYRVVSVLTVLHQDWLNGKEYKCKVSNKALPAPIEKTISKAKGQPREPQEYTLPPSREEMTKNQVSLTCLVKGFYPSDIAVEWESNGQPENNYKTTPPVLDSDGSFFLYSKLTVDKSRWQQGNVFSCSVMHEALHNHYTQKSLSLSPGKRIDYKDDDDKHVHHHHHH

B1: C8-6 (antibody, human IgG2, kappa, V domains shown)
VH: QVQLVQSGAEVKKPGASVKVSCKASGYTFTDYYMHWVRQAPGQGLEWMGRVNPNRGGTTYNQKFEGRVTMTTDTSTSTAYMELRSLRSDDTAVYYCARTNWLDYWGQGTTVTVSS
VL: DIQMTQSPSSLSASVGDRVTITCSVSSSVSSIYLHWYQQKPGKAPKLLIYSTSNLASGVPSRFSGSGSGTDFTLTISSLQPEDFATYYCIQYSGYPLTFGGGTKVEIKR
notes: Called IgG4, kappa; also called Mab C8-6
Human c-Met-Flis-Fc ECD [1]
  Average A450 nm: 4 A450 nm
RON-ECD-Fc [2]
  Average A450 nm: 0.11 A450 nm
PlexinA2-ECD-Fc
  Average A450 nm: 0.109 A450 nm
Human c-Met-Flis-Fc ECD [3]
  Average A450 nm: 0.322 A450 nm
RON-ECD-Fc [4]
  Average A450 nm: 0.098 A450 nm
Human c-Met-Flis-Fc ECD [5]
  Average A450 nm: 2.42 A450 nm
Mouse c-Met ECD
  binding result: no binding (tested: 100 nM)
